Data reported in PMC11332595.
Blank lines part the entries; values can stand above or below the molecule they belong to.

How the values were obtained:
[1] = biological target: MapSPARTA (binary complex of TIR-APAZ and Ago), wild type (Maribacter polysiphoniae); assay: cryo-EM structure
[2] = biological target: MapSPARTA (binary complex of TIR-APAZ and Ago), wild type (Maribacter polysiphoniae); assay: cryo-EM structure; remark: listed apart in the source
[3] = biological target: MapSPARTA (binary complex of TIR-APAZ and Ago), wild type (Maribacter polysiphoniae); assay: cryo-EM structure; remark: listed apart in the source
[4] = biological target: MapSPARTA (binary complex of TIR-APAZ and Ago), wild type (Maribacter polysiphoniae); assay: SEC
[5] = biological target: MapSPARTA V113R (TIR-APAZ V113R with Ago) (Maribacter polysiphoniae); assay: SEC
[6] = biological target: MapSPARTA V113R/D106R/D111R (TIR-APAZ triple mutant with Ago) (Maribacter polysiphoniae); assay: SEC
[7] = biological target: T1, MapSPARTA WT (Ago + TIR-APAZ) (Maribacter polysiphoniae, UniProt A0A316E3U6;A0A316E683 1-507;1-450); assay: BLI
T1 sequence 1: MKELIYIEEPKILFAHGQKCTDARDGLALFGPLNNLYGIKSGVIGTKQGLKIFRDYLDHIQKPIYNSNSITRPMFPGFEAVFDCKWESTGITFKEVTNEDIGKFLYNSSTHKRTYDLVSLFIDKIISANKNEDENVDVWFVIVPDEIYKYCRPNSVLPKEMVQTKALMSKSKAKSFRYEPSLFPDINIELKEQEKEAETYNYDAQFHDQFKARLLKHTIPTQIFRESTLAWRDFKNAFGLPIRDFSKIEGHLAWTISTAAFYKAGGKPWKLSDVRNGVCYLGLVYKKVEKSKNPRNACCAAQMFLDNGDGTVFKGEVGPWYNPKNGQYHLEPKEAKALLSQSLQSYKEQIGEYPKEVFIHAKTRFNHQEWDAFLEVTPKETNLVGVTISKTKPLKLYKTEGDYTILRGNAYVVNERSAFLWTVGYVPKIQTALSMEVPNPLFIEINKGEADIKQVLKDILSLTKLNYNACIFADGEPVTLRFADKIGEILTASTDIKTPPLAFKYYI
T1 sequence 2: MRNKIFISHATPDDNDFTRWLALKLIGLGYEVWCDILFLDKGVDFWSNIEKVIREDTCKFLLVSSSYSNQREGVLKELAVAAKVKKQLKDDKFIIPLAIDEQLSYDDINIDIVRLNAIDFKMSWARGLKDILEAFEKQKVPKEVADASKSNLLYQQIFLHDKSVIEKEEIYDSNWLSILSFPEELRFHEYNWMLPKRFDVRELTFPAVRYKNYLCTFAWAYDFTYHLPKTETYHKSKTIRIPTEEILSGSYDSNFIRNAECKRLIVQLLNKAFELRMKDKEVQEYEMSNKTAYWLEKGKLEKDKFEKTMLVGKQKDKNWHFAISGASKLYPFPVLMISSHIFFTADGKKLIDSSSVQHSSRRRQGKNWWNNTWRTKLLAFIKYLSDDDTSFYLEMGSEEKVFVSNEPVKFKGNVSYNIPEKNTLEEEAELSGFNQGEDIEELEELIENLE

- stoichiometry N [1]: 4
- stoichiometry N [2]: 2
- stoichiometry N [3]: 4
- stoichiometry N [4]: 4
Molecule: MapSPARTA (binary complex of TIR-APAZ and Ago), wild type

- stoichiometry N [5]: 2
Molecule: MapSPARTA V113R (TIR-APAZ V113R with Ago) (complex)

- stoichiometry N [6]: 2
Molecule: MapSPARTA V113R/D106R/D111R (TIR-APAZ triple mutant with Ago) (complex)

B1: guide RNA + biotinylated target DNA (BLI) (DNA:RNA)
RNA: UGACGGCUCUAAUCUAUUAGU
DNA: CAACTAATAGATTAGAGCCGTCAAT
modifications: 5'-phosphate on guide RNA
- Kd [7]: 13.5 nM
